How the values were obtained:
MS2 coat protein = assay: apparent KD of MS2 coat protein; designed switch direction (-1 OFF switch, 1 ON switch): 1; higher = weaker reporter binding
Procedure, shortened: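 Apparent KD, taken as the median over clusters for each design, was obtained by curve-fitting normalised cluster fluorescence. Designed RNA switches had been transcribed on Illumina chips by stalled E. coli RNA polymerase and titrated with SNAP-549-labelled MS2 coat protein, doubling from 0.7 or 1.5 nM to 3 µM.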

[1] = system: K4 kissing-loop RNA reporter; assay: apparent KD of K4 kissing-loop reporter; higher = weaker reporter binding; settings: Eterna round: R107;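 also: bound reporter read as fluorescence of individual clusters on recovered sequencing chips by microscopy, with normalized cluster intensities fitted with a binding model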
Method: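 RNA-MaP round R107: designed RNA switches with theophylline, tryptophan, arginine or FMN aptamers are transcribed on-chip within common flanks. They are titrated with a labelled K4 kissing-loop RNA reporter in RNA-MaP buffer (100 mM Tris pH 7.5, 80 mM KCl, 4 mM MgCl2), without ligand or with the indicated ligand. Median apparent KD per design.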

[2] = input ligand: microRNA oligo, concentration not stated
[3] = Eterna round: R95, input ligand: microRNA oligo, concentration not stated
[4] = Eterna round: R95, input ligand: FMN 200 uM
[5] = Eterna round: R95, input ligand: none
[6] = input ligand: theophylline 20 uM
[7] = input ligand: tryptophan 2.4 mM

Sequence	apparent KD of MS2 coat protein (MS2 coat protein; input ligand: FMN 200 uM) [nM]	apparent KD of MS2 coat protein (MS2 coat protein; [2]) [nM]	apparent KD of MS2 coat protein (MS2 coat protein; input ligand: none) [nM]	apparent KD of MS2 coat protein (MS2 coat protein; [3]) [nM]	apparent KD of MS2 coat protein (MS2 coat protein; [4]) [nM]	apparent KD of MS2 coat protein (MS2 coat protein; [5]) [nM]	further results
AAAAAACAUGAGGAUCACCCAUGUCAAAAGACAUGAGGAUAUGUACAGACUUCGGUCUGUACAGAAGGCAUGUAAA [SS1 - 1015] (Eterna round: R96, puzzle: Same State 1)	28.9	241	319				
AAAAGAAACACAGGAUAUACCGCACUUAACGCGGUAGAAGGGUGGGACAUGAGGAUCACCCAUGUGGCCUAAGCGCCAGGCCGC [Tibiorvela] (Eterna round: R96, puzzle: Same State NG 1)	3890	13.1	211				
AAAAUGGUAUGUUACAUGAGGAUCACCCAUGUACCGUCAUCUGAGGAUAUGGUGAUGUAGAAGAAUCAGAAGGCAGACAUUUAA [AK SSNG3-V2-25] (Eterna round: R96, puzzle: Same State NG 3)	17.3	20	34.1				
AAACAUGAGCGAGGAUAUGCGGAGGAUCACCCUGUAGAAGGCGCAUGUAAAACAACAUGAGGAUCACCCAUGUCAUGUACAUAA (Eterna round: R96, puzzle: Same State NG 1)	77.5	144	223				
AAACAUGAGCGAGGAUAUGCGGAGGAUUACCCUGUAGAAGGCGCAUGUAAAACAACAUGAGGAUCACCCAUGUCAUGUACAUGU (Eterna round: R96, puzzle: Same State NG 1)	168	115	226				
AAACCACAUGAGGAUCACCCAUGUGAUAAAAGCAUAGGAUAUCUGGAUGUGAGAGGCGGCAGAGAAGGAUGCACGC [Laoror] (puzzle: Same State 1)				58.2			
AAACGGCCGAACGGAGGGCCACAUGAGGAUCACCCAUGUACAUAGGAUAUCACACCAACGAGGCGUGAGAAGGGUGAUUAAAAC [Teisedbe] (Eterna round: R96, puzzle: Same State NG 3)	176	52.1	1110				
AAACUACAUGAGGAUCACCCAUGUGAAAACCGCAUAGGAUAUCCGCAGCAAUGAGCUGACGGAGAAGGGUGACCGG [Riater] (puzzle: Same State 1)				103	175	276	
AAAGAAAACGCAGGAUAUCCCGGAAUGGAAACGGGAGAAGGGUGACCGGUACAUGAGGAUCACCCAUGUAGAGCACAGGCUCAA [Sousdi] (Eterna round: R96, puzzle: Same State NG 1)	3380	39.4	922				
AAAGGACAUGAGGAUCACCCAUGUAGAAAAUACACAGGAUAUCGUCAUAUCGAAAUAUAAUGAGAAGGGUGCAAAA [Zaanininra] (puzzle: Same State 1)				179	73.5	256	
AAAGUACAUGAGGAUCACCCAUGUCCCAAUGAAUAAGGAUAUACGAAAAUAAAAUAAAAUGUAGAAGGUAUAAUAG [Same State 1 #1] (puzzle: Same State 1)				30.5			
AAAUAAAUGACUCAGGAUAUAUCAUAGAAUACAUGAGGAUCACCCAUGUUUUAAUAACAUGUUUGGUAGAAGGGAGUCAAUAAAU [LROPPY Same State 2 - v05_deltaG=1.86] (Eterna round: R96, puzzle: Same State 2)	25.2	78.1	105				
AACAAUCUAUCUGAGGAUAUCAUGAAAUAAACAUGAGGAUCACCCAUGUGCAGGAAAACUGCAUAUGAGAAGGCUGAUAGAUUGA [salish99_ss2_r3_051] (puzzle: Same State 2)				574	78	5350	
AACAAUCUAUCUGAGGAUAUCAUGAAAUAAACAUGAGGAUCACCCAUGUGUAGGAAAACUGCAUAUGAGAAGGCAGAUAGAUUGA [salish99_ss2_r3_036] (Eterna round: R96, puzzle: Same State 2)		465					
AACAAUCUAUCUGAGGAUAUCAUGAAAUAAACAUGAGGAUCACCCAUGUGUAGGAAAACUGCAUAUGAGAAGGCAGAUAGAUUGA [salish99_ss2_r3_036] (puzzle: Same State 2)				299	31.9	1330	
AACAAUCUAUCUGAGGAUAUCAUGUAAUAAACAUGAGGAUCACCCAUGUGCAGGAAAACUGCAUAUGAGAAGGCAGAUAGAUUGA [salish99_ss2_r3_030] (puzzle: Same State 2)				134	182	180	

Sequence	apparent KD of MS2 coat protein (MS2 coat protein; input ligand: FMN 200 uM) [nM]	apparent KD of MS2 coat protein (MS2 coat protein; [2]) [nM]	apparent KD of MS2 coat protein (MS2 coat protein; input ligand: none) [nM]	apparent KD of MS2 coat protein (MS2 coat protein; [3]) [nM]	apparent KD of MS2 coat protein (MS2 coat protein; [4]) [nM]	apparent KD of MS2 coat protein (MS2 coat protein; [5]) [nM]	further results
AACAAUCUAUCUGAGGAUAUCAUGUCAAAGACAUGAGGAUCACCCAUGUACCAGGAAACUGGUUAUGAGAAGGCAGAUAGAUUGA [SS2: 1115] (Eterna round: R96, puzzle: Same State 2)	48.2	596	932				
AACAAUCUAUCUUAGGAUAUCAUGAAAUAAACAUGAGGAUCACCCAUGUGCAGGAAAACUGCAUAUGAGAAGGCAGAUAGAUUGA [salish99_ss2_r3_026] (puzzle: Same State 2)				36.2	593	42.2	
AACAUGUGGUGUCACAUGAGGAUCACCCAUGUGGUAAAAGCUGAGGAUAUAAAGAGAAACAUGAAUUAGAAGGUAGGAUCACAA [AK SSNG3-V2-19] (Eterna round: R96, puzzle: Same State NG 3)	177	138	127				
AACUAUCUAUCUCAGGAUAUCAUGUCAAAGACAUGAGGAUCACCCAUGUACCAGGAAACUGGUUAUGAGAAGGGAGAUAGAUAGG [Mat - Same State 2 - Mod - D42] (puzzle: Same State 2)				64.8	193	68.3	
AAGCUCGUGUGAGGAUAUGCCGCCGUUUCGGCUGCAGAAGGUGCUACGUUACAUGAGGAUCACCCAUGUCUCUGUUGUUUCGUU [salish99_SSNG1_r04_951] (Eterna round: R96, puzzle: Same State NG 1)	18.7	15.9	20.8				
AAGUAACAUGAGGAUCACCCAUGUGAGGUGAGCGUAGGAUAUCGAGAAGGAAGGGUGGAGCGAGAAGGACGAAGGA [JR_SS1_Sub0102] (puzzle: Same State 1)				192	349	501	
AAGUAACAUGAGGAUCACCCAUGUGAGGUGAGCGUAGGAUAUCGAGGAGGAAGGGUGGAGCGAGAAGGACGAGAAG [JR_SS1_Sub097] (puzzle: Same State 1)				262	114	402	
AAGUUAAGCUUUUUGUUCUGCCUAUUCUGACAUGAGGAUCACCCAUGUGGUCGAACGACUACGUGUGUAGUUGAGAU [JR_SHM208A_Sub030] (Eterna round: R96, puzzle: Sensor for hsa-mir-208a)	493	341	550				
AAGUUAAGCUUUUUGUUCUGCCUAUUCUGACAUGAGGAUCACCCAUGUGGUCGAACGACUACGUGUGUAGUUGAGAU [JR_SHM208A_Sub030] (puzzle: Sensor for hsa-mir-208a)				252	174	278	
AAUUAAUUAAUACAUGAGGAUCACCCAUGUAAUUAUUAGAUCAAGGAUAUCAGCUCGAAUAGAGCUGAGAAGGUGAUCACAUGU [SSNG3/18-A1] (Eterna round: R96, puzzle: Same State NG 3)		259					
AAUUAAUUAAUUAAUAUACAUGAGGAUCACCCAUGUAAGAUCAAGGAUAUCAGCUCGAUUAGAGCUGAGAAGGUGAUCACAUGU [SSNG3/16-A2] (Eterna round: R96, puzzle: Same State NG 3)		207					
ACAAAGAACACAGGAUAUCGGAAAGGAAGUGUACGAGAAGGGUGGUCAACAGUACAUGAGGAUCACCCAUGUGGUGGAUGGCAA [PowerStrip SSNG 1.12] (Eterna round: R96, puzzle: Same State NG 1)	177	2.42	1440				
ACAAGACAUGAGGAUCACCCAUGUAUAAAUUACACAGGAUAUCGGCGGACCGCACCCGCACGAGAAGGGUGACUUC [Eszaleer] (puzzle: Same State 1)				34.1	472	24.7	
ACAAGCUUUUCUGUAUUGAAAGGUGGGAUACAUGAGGAUCACCCAUGUUUUUUUGAAAAUAAUAUUCCUCGUCUUAU [JR_SHM208A_Sub091] (puzzle: Sensor for hsa-mir-208a)				33.1	51.5	47.1	
UUUUUAUGCAGUGAUGUUGCUAAUAUAACAGAGGAUAUGCAUUAAUGCAGAAGGCUGAAAUACUAUACUUUAAUAAAUUAAAUUU [JR_SSFMNA_Sub014]							apparent KD of K4 kissing-loop reporter ([1]; input ligand: FMN 200 uM): 89.9 nM; apparent KD of K4 kissing-loop reporter ([1]; input ligand: arginine 13.2 mM): 109 nM; apparent KD of K4 kissing-loop reporter ([1]; input ligand: none): 85.5 nM; apparent KD of K4 kissing-loop reporter [1, 6]: 134 nM; apparent KD of K4 kissing-loop reporter [1, 7]: 85 nM
UUUUUGGAGAAUUAUAGUGAUGUUAUGAAGGAGGAUAUCUGGAGAUGGAGAAGGCCUAGUGGCUCAGCCCUCGCGGGUGGGUGGG [ExFMNA.aD]							apparent KD of K4 kissing-loop reporter ([1]; input ligand: FMN 200 uM): 667 nM; apparent KD of K4 kissing-loop reporter ([1]; input ligand: arginine 13.2 mM): 518 nM; apparent KD of K4 kissing-loop reporter ([1]; input ligand: none): 456 nM; apparent KD of K4 kissing-loop reporter [1, 6]: 530 nM; apparent KD of K4 kissing-loop reporter [1, 7]: 426 nM
